{"source": "paper PMC8664833", "key": {"[1]": {"biological_target": "ZAP-S (short isoform of zinc-finger antiviral protein) (human, UniProt Q7Z2W4-2 1-699)", "sequence (Q7Z2W4 other isoform, or with tags, fused parts or gaps)": "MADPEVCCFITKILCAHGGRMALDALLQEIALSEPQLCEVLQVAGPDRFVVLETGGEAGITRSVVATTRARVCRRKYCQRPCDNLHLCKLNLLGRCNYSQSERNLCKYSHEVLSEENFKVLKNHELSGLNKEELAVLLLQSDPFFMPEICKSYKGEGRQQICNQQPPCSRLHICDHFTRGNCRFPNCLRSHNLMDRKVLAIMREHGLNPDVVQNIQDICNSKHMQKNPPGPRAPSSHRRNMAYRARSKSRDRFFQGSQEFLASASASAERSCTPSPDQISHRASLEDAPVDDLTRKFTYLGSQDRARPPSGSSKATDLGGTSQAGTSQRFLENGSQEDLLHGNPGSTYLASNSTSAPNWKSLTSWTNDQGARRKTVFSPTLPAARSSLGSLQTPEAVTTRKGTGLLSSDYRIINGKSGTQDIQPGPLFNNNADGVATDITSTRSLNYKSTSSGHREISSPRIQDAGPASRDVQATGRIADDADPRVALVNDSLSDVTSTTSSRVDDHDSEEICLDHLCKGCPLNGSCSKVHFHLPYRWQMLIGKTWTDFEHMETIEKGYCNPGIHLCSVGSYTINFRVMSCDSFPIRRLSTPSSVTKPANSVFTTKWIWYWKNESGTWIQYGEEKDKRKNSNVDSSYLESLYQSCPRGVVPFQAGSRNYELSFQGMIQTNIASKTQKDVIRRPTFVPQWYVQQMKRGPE", "experiment": "MST; 5 mM Mg2+", "details": "protein: recombinant; tags: N-terminal 6xHis-SUMO; label: 3' pCp-Cy5; pseudoknot (SL1, SL2, SL3)"}, "IMP3 (IGF2BP3)": {"biological_target": "IMP3 (IGF2BP3) (UniProt O00425 1-579)", "sequence (O00425 whole entry)": "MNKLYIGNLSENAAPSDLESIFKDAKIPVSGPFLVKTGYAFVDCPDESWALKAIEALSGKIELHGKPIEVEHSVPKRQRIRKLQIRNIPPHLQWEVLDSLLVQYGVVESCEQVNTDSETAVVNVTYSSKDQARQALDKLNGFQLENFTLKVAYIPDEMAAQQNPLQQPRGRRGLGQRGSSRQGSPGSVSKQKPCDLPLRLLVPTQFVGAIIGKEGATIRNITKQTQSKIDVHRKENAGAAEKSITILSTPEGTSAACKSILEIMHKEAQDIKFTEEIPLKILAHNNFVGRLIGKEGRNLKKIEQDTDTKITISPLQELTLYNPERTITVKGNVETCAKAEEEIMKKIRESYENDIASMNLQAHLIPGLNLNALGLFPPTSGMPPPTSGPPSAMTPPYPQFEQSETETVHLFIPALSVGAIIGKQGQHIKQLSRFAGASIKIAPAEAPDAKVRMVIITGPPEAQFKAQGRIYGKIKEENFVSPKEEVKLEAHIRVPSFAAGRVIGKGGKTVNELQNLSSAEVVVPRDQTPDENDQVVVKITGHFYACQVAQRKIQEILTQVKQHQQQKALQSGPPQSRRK", "experiment": "MST; 5 mM Mg2+", "details": "protein: recombinant; tags: His-SUMO; label: 3' pCp-Cy5; pseudoknot (SL1, SL2, SL3)"}}, "data": [{"binder": "Full PRF (WT SARS-CoV-2 -1PRF RNA) (structured_RNA) RNA: UCGUUUUUAAACGGGUUUGCGGUGUAAGUGCAGCCCGUCUUACACCGUGCGGCACAGGCACUAGUACUGAUGUCGUAUACAGGGCUUUUGACAUCUACAAUGAUAAAGUAGCUG", "values": [{"measurement": "Kd", "setting": "[1]", "result": "110 ± 9", "unit": "nM"}, {"measurement": "Kd", "setting": "IMP3 (IGF2BP3)", "result": "806 ± 252", "unit": "nM"}]}]}
